Starred links: 1 amine or outer side, 2 acyl side, 3 side chain; linkers in the order of their positions; H or OH if unused. Residues, ends and D or L forms follow the SMILES beside them. Groups on a side chain read outwards from the residue. *: point of attachment. X1 = FCCOC1CCCC2C(=CNN=C2c2ccc(CN*)cc2)CC1; Glutaryl = O=C(CCCC(=O)[*:2])[*:1]
Experiments:
[1] = target: T1, plasma transglutaminase factor XIII (FXIII) (Mus musculus, UniProt Q8BH61); experiment: Scintillation counting of 18F-FXIII signal in hearts with or without MI; format: in vivo; details: p<0.05
T1 sequence (Q8BH61 1-732): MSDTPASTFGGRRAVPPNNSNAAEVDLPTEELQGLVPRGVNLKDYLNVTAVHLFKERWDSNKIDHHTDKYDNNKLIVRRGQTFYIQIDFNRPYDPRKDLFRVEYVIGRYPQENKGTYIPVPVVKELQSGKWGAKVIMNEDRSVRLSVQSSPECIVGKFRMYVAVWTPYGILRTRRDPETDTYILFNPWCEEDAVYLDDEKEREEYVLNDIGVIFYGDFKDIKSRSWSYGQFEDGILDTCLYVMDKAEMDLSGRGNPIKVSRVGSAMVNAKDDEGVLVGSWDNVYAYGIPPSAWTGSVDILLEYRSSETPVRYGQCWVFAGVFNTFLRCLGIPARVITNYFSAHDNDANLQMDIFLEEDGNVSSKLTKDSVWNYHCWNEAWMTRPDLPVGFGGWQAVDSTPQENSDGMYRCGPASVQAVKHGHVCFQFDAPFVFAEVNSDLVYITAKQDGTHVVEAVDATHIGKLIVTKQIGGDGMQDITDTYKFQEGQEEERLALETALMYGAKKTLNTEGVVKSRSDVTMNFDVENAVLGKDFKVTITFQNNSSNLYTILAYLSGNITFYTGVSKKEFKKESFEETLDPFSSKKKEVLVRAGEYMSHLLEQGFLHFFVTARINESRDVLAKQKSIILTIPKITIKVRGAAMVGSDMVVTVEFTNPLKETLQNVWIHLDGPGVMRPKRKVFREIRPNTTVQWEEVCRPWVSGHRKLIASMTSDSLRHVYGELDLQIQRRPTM

[2] = B6 mice, injected i.v., n = 5, R^2 = 0.95, mean±SEM
in vivo = details: B6, mouse, iv, SEM

## CC(=O)NCC(=O)N[C@@H](CC(N)=O)C(=O)N[C@@H](CCC(N)=O)C(=O)N[C@@H](CCC(=O)O)C(=O)N[C@@H](CCC(N)=O)C(=O)N[C@H](C(=O)N[C@@H](CO)C(=O)N1CCC[C@H]1C(=O)N[C@@H](CC(C)C)C(=O)N[C@H](C(=O)N[C@@H](CC(C)C)C(=O)N[C@@H](CC(C)C)C(=O)N[C@@H](CCCCNC(=O)CCCC(=O)NCc1ccc(C2=NNC=C3CCC(OCCF)CCCC32)cc1)C(=O)N[C@@H](Cc1c[nH]c2ccccc12)C(=O)O)[C@@H](C)O)C(C)C (stereo partly drawn) [18F-FXIII] (Ac-GNQEQVSPLTLLK([Glutaryl-X1])W-OH; N-terminus and C-terminus assumed)
[1]; day 4 after MI, comparable to non-infarcted wild-type B6 and FXIII−/− mice
  Signal intensity in hearts of FXIII−/− mice with MI (specificity): significantly lower
[1]; day 4 after coronary ligation, n = 4-5 per group
  18F-FXIII signal in the heart, B6 mice with MI compared to control mice: significantly higher
[2]
  blood half-life: 13.2 ± 0.94 min
In vivo; blood
  tissue uptake at 1.25 h: 0.49 ± 0.03 %ID/g
In vivo; bone
  tissue uptake at 1.25 h: 0.31 ± 0.03 %ID/g
In vivo; fat
  tissue uptake at 1.25 h: 0.17 ± 0.01 %ID/g
In vivo; heart
  tissue uptake at 1.25 h: 0.23 ± 0.03 %ID/g
In vivo; intestines
  tissue uptake at 1.25 h: 0.25 ± 0.04 %ID/g
In vivo; kidney
  tissue uptake at 1.25 h: 1.26 ± 0.06 %ID/g
In vivo; liver
  tissue uptake at 1.25 h: 2.83 ± 0.22 %ID/g
In vivo; lymph node
  tissue uptake at 1.25 h: 0.6 ± 0.1 %ID/g
In vivo; muscle
  tissue uptake at 1.25 h: 0.15 ± 0.01 %ID/g
In vivo; skin
  tissue uptake at 1.25 h: 0.31 ± 0.05 %ID/g
In vivo; spleen
  tissue uptake at 1.25 h: 0.49 ± 0.05 %ID/g
In vivo; tail
  tissue uptake at 1.25 h: 0.41 ± 0.03 %ID/g

— paper PMC3661714 (Circulation, 2013)
